Changes are numbered by the printed parent chain. Numbers in names are those of the source.
T1: Ste4p (Saccharomyces cerevisiae (yeast)) (UniProt P18851)
T1 sequence (35S-labelled methionine in the in vitro-translated form, looked up): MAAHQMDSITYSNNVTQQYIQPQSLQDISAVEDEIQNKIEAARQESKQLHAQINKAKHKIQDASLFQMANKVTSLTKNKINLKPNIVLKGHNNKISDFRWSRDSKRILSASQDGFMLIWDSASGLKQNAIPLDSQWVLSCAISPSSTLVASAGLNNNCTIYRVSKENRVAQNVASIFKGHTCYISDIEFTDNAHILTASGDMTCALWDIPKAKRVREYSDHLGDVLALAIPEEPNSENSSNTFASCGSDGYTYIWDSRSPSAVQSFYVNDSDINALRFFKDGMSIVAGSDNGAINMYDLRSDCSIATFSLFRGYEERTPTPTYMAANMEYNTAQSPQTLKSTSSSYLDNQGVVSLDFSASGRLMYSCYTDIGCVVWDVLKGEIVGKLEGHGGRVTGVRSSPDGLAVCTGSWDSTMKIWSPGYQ

T2: Ste20p (Saccharomyces cerevisiae (yeast), UniProt Q03497 1-939)
T2 construct: Full length Ste20p in yeast cells (endogenous, or from pDH166 / pSTE20-5); also called STE20^WT; wild-type Ste20p
T2 sequence: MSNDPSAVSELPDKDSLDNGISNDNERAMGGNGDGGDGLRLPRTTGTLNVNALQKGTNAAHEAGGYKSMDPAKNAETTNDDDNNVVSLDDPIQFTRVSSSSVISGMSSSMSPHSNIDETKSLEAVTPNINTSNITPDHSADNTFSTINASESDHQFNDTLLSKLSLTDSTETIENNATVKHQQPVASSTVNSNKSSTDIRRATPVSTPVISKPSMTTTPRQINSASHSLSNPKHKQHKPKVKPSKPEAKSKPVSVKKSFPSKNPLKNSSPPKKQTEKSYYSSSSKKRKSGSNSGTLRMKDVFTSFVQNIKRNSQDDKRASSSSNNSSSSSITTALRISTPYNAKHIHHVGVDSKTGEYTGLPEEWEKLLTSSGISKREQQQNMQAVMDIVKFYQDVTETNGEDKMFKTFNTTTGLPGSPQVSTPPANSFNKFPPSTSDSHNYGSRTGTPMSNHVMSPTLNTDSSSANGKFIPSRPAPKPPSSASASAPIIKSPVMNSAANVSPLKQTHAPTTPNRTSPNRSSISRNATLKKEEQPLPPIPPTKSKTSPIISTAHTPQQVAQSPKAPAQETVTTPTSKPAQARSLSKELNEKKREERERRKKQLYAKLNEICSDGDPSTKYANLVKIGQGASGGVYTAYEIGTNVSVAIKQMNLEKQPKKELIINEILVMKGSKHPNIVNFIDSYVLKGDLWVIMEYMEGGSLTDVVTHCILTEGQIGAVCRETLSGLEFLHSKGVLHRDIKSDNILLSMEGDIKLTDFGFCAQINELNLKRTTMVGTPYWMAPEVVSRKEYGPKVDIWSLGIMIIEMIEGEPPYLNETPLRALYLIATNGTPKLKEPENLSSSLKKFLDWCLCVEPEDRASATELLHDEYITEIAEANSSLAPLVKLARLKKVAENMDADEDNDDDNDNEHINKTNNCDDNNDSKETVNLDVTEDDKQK

T3: GST-Ste20p FL (Saccharomyces cerevisiae (yeast), UniProt Q03497 1-939)
T3 construct: Purified on glutathione-Sepharose beads; also called GST fusion with full length Ste20p; not shown: glutathione S-transferase (GST), amino-terminal fusion partner
T3 sequence: T2 sequence

T4: Ste4p, P18851
T4 chain: T1 sequence (35S-labelled methionine in the in vitro-translated form, looked up)

B1: GST fusion with the fragment from amino acid 819 to 939 of the Ste20p^S879A/S880A/P883A mutant (protein, not shown: a dimerising Fc or GST; large carriers; small tags and cut ends)
chain: PLRALYLIATNGTPKLKEPENLSSSLKKFLDWCLCVEPEDRASATELLHDEYITEIAEANAALAALVKLARLKKVAENMDADEDNDDDNDNEHINKTNNCDDNNDSKETVNLDVTEDDKQK
B2: HA-Ste4p (other, Saccharomyces cerevisiae (yeast), UniProt P18851 1-423, looked up, not shown: small tags and cut ends)
chain: T1 sequence (35S-labelled methionine in the in vitro-translated form, looked up)
B3: Ste4p K55E mutant (other, Saccharomyces cerevisiae (yeast), UniProt P18851 1-423, looked up)
chain: T1 sequence (35S-labelled methionine in the in vitro-translated form, looked up) with K55E
modifications: 35S-labelled methionine
notes: In vitro-translated, 35S-labelled; also called STE4^K55E; 35S-Ste4p K55E
B4: Ste4p D62N mutant (other, Saccharomyces cerevisiae (yeast), UniProt P18851 1-423, looked up)
chain: T1 sequence (35S-labelled methionine in the in vitro-translated form, looked up) with D62N
modifications: 35S-labelled methionine
notes: In vitro-translated, 35S-labelled; also called STE4^D62N; 35S-Ste4p D62N
B5: Ste20p^495-888 (protein)
chain: MNSAANVSPLKQTHAPTTPNRTSPNRSSISRNATLKKEEQPLPPIPPTKSKTSPIISTAHTPQQVAQSPKAPAQETVTTPTSKPAQARSLSKELNEKKREERERRKKQLYAKLNEICSDGDPSTKYANLVKIGQGASGGVYTAYEIGTNVSVAIKQMNLEKQPKKELIINEILVMKGSKHPNIVNFIDSYVLKGDLWVIMEYMEGGSLTDVVTHCILTEGQIGAVCRETLSGLEFLHSKGVLHRDIKSDNILLSMEGDIKLTDFGFCAQINELNLKRTTMVGTPYWMAPEVVSRKEYGPKVDIWSLGIMIIEMIEGEPPYLNETPLRALYLIATNGTPKLKEPENLSSSLKKFLDWCLCVEPEDRASATELLHDEYITEIAEANSSLAPLVKLA
B6: Ste20p^S879A/S880A/P883A (protein)
chain: T2 sequence with S879A, S880A, P883A
B7: Ste20p^CLA4 (protein)
chain: T2 sequence with S879K, S880D, A882T, P883S, V885L, K886E, L887W

Columns and labels:
[1] = target: T1, Ste4p (Saccharomyces cerevisiae (yeast)); assay: GST pull-down of in vitro-translated 35S-Ste4p with HA-Ste18p present; normalized against wild-type Ste20p 819-939
Ste20p = target: T2, Ste20p; assay: co-immunoprecipitation from yeast extracts, anti-HA IP, Western blot
Description: Relative amounts of Ste20p and HA-Ste4p were determined in Western blots (see example in upper and middle panels) and quantified densitometrically (mean values ±SD, n=3) (lower panel). (B) Association of Ste5p with HA-Ste4p expressed from the STE4 promoter in cells deleted for STE4 . HA-Ste4p immunoprecipitates from exponentially growing (−) and pheromone-treated (90 minutes) (+) yeast cells were analyzed with antibodies to Ste5p (upper panel) or HA-Ste4p (lower panel). (C) Overexpression of Ste4p leads to binding to Ste20p. HA-Ste4p was overexpressed from the GAL1 promoter in cells deleted for STE20 (lane 1) or STE4 (lanes 2 and 3). […] Immunoprecipitates obtained with antibodies to Ste20p (lanes 1 and 2) or the HA-epitope (lanes 3 and 4) were analyzed for the presence of Ste20p (upper panel) and HA-Ste4p (lower panel). […] HA-Ste4p (lanes 1 and 2) and Ste20p (lanes 3 and 4) immunoprecipitates were analyzed for the presence of Ste20p (upper panel) and HA-Ste4p (lower panel) by Western blot analyses. […]
For the detection of Ste20p fragments, a secondary sheep antibody specific to rabbit immunoglobulin light chains and a tertiary HRP-conjugated donkey antibody to sheep IgG were obtained from The Binding Site, Lim. […] For quantitation, immunoblots were evaluated by integrating densitometry using an Epson ES 1200-C densitometer and the NIH Image 1.59 software.

GST-Ste20p FL = target: T3, GST-Ste20p FL; assay: GST pull-down of in vitro-translated 35S-Ste4p mutant, with HA-Ste18p present
Excerpt: Interaction of Ste4p mutants with Ste20p and Ste5p. […] Relative amounts of the GST fusion proteins and of ³⁵S-Ste4p were quantified by densitometric evaluation of Western blots and autoradiographs, respectively. Data are given as percentage of binding of wild-type ³⁵S-Ste4p (mean values ±SD, n≧3).
The beads were then washed three times with PBS, separated by SDS-PAGE and analysed by autoradiography of Western blots. Results were confirmed in at least three independent experiments. Immunodetection and evaluation of immunoblots and radiographs were then performed as described above. Data obtained for ³⁵S-Ste4p were corrected for relative concentrations of the respective GST fusion proteins.

Ste4p, P18851 = target: T4, Ste4p, P18851

Binder | G1 arrest (Ste4p, P18851) | Mating efficiencies (%) (Ste4p, P18851) | Shmoo formation (Ste4p, P18851) | also measured
B1 |  |  |  | Binding to 35S-Ste4p (%) [1]: 15.2%
B2 |  |  |  | binding result (Ste20p): binds
B3 |  |  |  | binding result (GST-Ste20p FL): no binding
B4 |  |  |  | binding result (GST-Ste20p FL): no binding
B5 | + | 75.2 | + | FUS1::lacZ expression, Basal (Ste4p, P18851): 1.6; FUS1::lacZ expression, Induced (Ste4p, P18851): 148
B6 | - | 0.039 | - | FUS1::lacZ expression (Ste4p, P18851): 14
B7 | - | 0.016 | - | FUS1::lacZ expression (Ste4p, P18851): 11

Reference: patent US20020106690A1 (published 2002)
